In paper PMC11542851:

How the values were obtained:
[1] = target: clade 1b RBDs (SARS-CoV-2-related sarbecoviruses), yeast-displayed; test: flow cytometry on cells
[2] = target: clade 1a RBDs (SARS-CoV-1-related sarbecoviruses), yeast-displayed; test: flow cytometry on cells

B1: C68.61 (antibody, V domains shown)
VH: EVQLVQSGAEVKKPGESLKISCKGSAYIFTRYWIGWVRQMPGKGLEWMGIIYPGDSDTRYSPSFQGQVTISADKSISTAYLQWSSLKASDTAMYYCARSGTTNYFDYWGQGTLVTVSS
VL: DIQLTQSPSTLSASVGDRVTITCRASQSISSWLAWYQQKPGKAPKLLIYDASSLDSGVPSRFSGSGSGTDFTLTISSLQPDDFATYYCQQFNSYWTFGQGTKVEIK
In the case of B1, the geomean EC50 across the clade [1] is reported as 0.25 ng/mL and the geomean EC50 across the clade [2] is reported as 1.9 ng/mL.
